Laboratory results from the supplement of paper PMC10567573.
± gives the standard deviation.

Test: protein stability index of a GFP-peptide fusion (GPS, HEK-293T) (PSI 1-6); higher = more stable
Settings: c terminus: a fixed tail appended
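Note: 24-mer peptide tiles fused after GFP, lentivirally expressed, FACS-sorted into six equal bins by GFP/DsRed ratio, decoded by Illumina sequencing, PSI is the read-weighted mean bin number.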

| Sequence | protein stability index (treatment: DMSO) | protein stability index (treatment: MLN4924 1 uM, 8 h) |
| --- | --- | --- |
| LKNNETLVQHGVKPQEIVQVEIFS [IQUB] | 2.82 ± 0.54 | 2.98 ± 0.7 |
| NNQYSEGVQREAQRIALRLGNGND [KMT2E] | 4.51 ± 0.24 | 4.63 ± 0.18 |
| MHRLGEPQARMREENMERIGEEVR [BEX1] | 5.14 ± 0.13 | 5.2 ± 0.21 |
| NGNRRRRKLRKTVNGDGSRENGNN [PHTF1] | 4.93 ± 0.43 | 5.12 ± 0.19 |
| IDASQLPHRVLETRGHAISILFGF [SMIM2] | 2.68 ± 0.54 | 2.51 ± 0.54 |
| DDKMVRFWRIDEDYPVQVAPLSNG [WSB1] | 3.37 ± 0.34 | 3.45 ± 0.33 |
| RLRGKLRAEIENLHRTFDPHFLRV [MOG] | 2.48 ± 0.18 | 2.44 ± 0.28 |
| NYCPQQTKITSAFKYINTVISCTI [EDNRA] | 3.3 ± 0.65 | 2.77 ± 0.18 |
| KPANILLDAHYHVKISDFGLAKCN [RIPK4] | 2.33 ± 0.22 | 2.49 ± 0.23 |
| LESQVQKDGVADSTVISSMPCLLM [C18orf25] | 3.39 ± 0.25 | 3.54 ± 0.27 |
| RKFWWKNVKMIVLICVIVFIIILF [VAMP8] | 3.13 ± 0.32 | 2.98 ± 0.3 |
| EDYGHWLLCLRAVTHREGAPPLPG [PLEKHN1] | 2 ± 0.14 | 2.16 ± 0.26 |
| EQLFFVRLVGKTPIETLIRDMLLS [NR2F2] | 2.56 ± 0.47 | 2.42 ± 0.61 |
| VEVDAPKSQDLAKIMADIRAQYDE [KRT18] | 4.76 ± 0.12 | 4.71 ± 0.17 |
| FRKEIKSKSADNQEYFERHRWPPV [RHOBTB1] | 3.45 ± 0.44 | 3.26 ± 0.16 |
| FVGAIFNGLTLLILGVIGLFTIPL [RTN2] | 2.02 ± 0.11 | 2.27 ± 0.42 |
| TLRRIQASMAPAAALPPVPSPPAA [SERTAD1] | 3.6 ± 0.23 | 3.8 ± 0.31 |
| MSPSLQEGAQLGENKPSTCSFSIE [HESX1] | 4.95 ± 0.3 | 5.07 ± 0.18 |
| RLKLLKDREVDAATSATSHTRSLN [FBF1] | 4.31 ± 0.32 | 4.41 ± 0.16 |
| QRLGIPKDPRQWTETHVRDWVMWA [ETS1] | 2.37 ± 0.31 | 2.48 ± 0.3 |
| ADGAWVVKMFYSFQDKRNLYLIME [STK38L] | 3.11 ± 1 | 2.99 ± 0.79 |
| ELRLQSEAFKKHSLDLLSKERELN [CCDC89] | 3.8 ± 0.2 | 3.69 ± 0.42 |
| YMNFRVKACNKAVAGEFSEPVTLE [FSD1] | 3.03 ± 0.29 | 2.93 ± 0.46 |

| Sequence | protein stability index (treatment: DMSO) | protein stability index (treatment: MLN4924 1 uM, 8 h) |
| --- | --- | --- |
| PDAPDHTSETSHSPLYADPYTPPA [PLEKHN1] | 5.22 ± 0.3 | 5.01 ± 0.28 |
| DDILYHVKGMQRIVNQWSEKFSDE [DLC1] | 3.52 ± 0.14 | 3.75 ± 0.28 |
| SVILNHMAREHAFNIGLPDNIVNC [ZNF277] | 1.98 ± 0.2 | 2.22 ± 0.45 |
| QAIDATVAAELLNHLLESMPLREG [HES6] | 2.43 ± 0.41 | 2.3 ± 0.28 |
| PIVSSLADPLDTPPDSKEGIVVES [PDZK1] | 5.37 ± 0.14 | 5.25 ± 0.48 |
| EEGIVSPSDLDLVMSEGLGMRYAF [CRYL1] | 2.27 ± 0.42 | 3.02 ± 0.31 |
| YYNVVLLRYQFSRPGPQSVPLQLS [FCHO1] | 3.13 ± 0.43 | 2.91 ± 0.53 |
| GKSFCHSTHLTVHRRIHTGEKPYE [ZNF8] | 3 ± 0.16 | 3.35 ± 0.3 |
| SERPLEDLRLRLDHLGWVARGTGS [RTN2] | 2.63 ± 0.53 | 3.2 ± 0.58 |
| EQAQAYAERLGVTFFEVSPLCNFN [RAB40A] | 2.25 ± 0.26 | 2.48 ± 0.3 |
| TFDVDEYEHYERVENGDFNWIVPG [CDC14A] | 4.11 ± 0.26 | 4.17 ± 0.17 |
| DKWFRKIKDHFCPFENQFHTEIQI [C8orf76] | 2.2 ± 0.54 | 2.32 ± 0.42 |
| LYLKQSDLASAAAKQIMEETYKME [INTS4] | 3.05 ± 0.17 | 3.3 ± 0.23 |
| QALQAGPEGARRGLGVLRALGSRG [FANCE] | 4.38 ± 0.33 | 4.31 ± 0.26 |
| GEDQAFGDWLLTANGSEIHKHVHF [SLC22A15] | 3.03 ± 0.26 | 3.09 ± 0.26 |
| PEDLQTDLAKLVDQQNPTLGETPE [ZNF449] | 5.62 ± 0.23 | 5.73 ± 0.2 |
| RISSPQVEEGDSRFLANEVLQENY [WEE1] | 4.83 ± 0.44 | 4.91 ± 0.13 |
| HCMLVSNRVSWWGSTLAMLQRLKE [ZBED1] | 3.29 ± 0.18 | 3.46 ± 0.37 |
| YHINSISVNSDCETYMSADDLRIN [PPP2R2C] | 2.89 ± 0.44 | 3.2 ± 0.29 |
| ISRLEQCGINANDVKKLEEAGFHT [RAD51] | 3.58 ± 0.15 | 3.9 ± 0.11 |
| SADPARGLPRSRDCRVDLGSEVYR [PDLIM4] | 3.74 ± 0.23 | 3.83 ± 0.09 |
| VLFTSDACGLSDVAHVESLQEKSQ [NR2F2] | 3.93 ± 0.26 | 4.04 ± 0.28 |
| ERTWPPPAMSPYWRTWMTITQSWQ [C22orf15] | 2.31 ± 0.58 | 1.94 ± 0.32 |

| Sequence | protein stability index (treatment: DMSO) | protein stability index (treatment: MLN4924 1 uM, 8 h) |
| --- | --- | --- |
| MKYTSEKFLEICKLSGFMSKLVPA [TPRG1] | 3.05 ± 1 | 2.56 ± 0.45 |
| GSKEGNHHSTQPKRNKRNPIFQDS [FAM104B] | 4.57 ± 0.21 | 4.55 ± 0.3 |
| MCTKMEQPFYHDDSYTATGYGRAP [JUNB] | 3.19 ± 0.19 | 3.25 ± 0.24 |
| PVAQSTDAIRGKVGYTRGLHVWQI [SPSB1] | 2.15 ± 0.13 | 2.21 ± 0.17 |
| DGMRNKETLEGREKAFIAHFQDNL [MED27] | 4.35 ± 0.17 | 4.2 ± 0.17 |
| TFPKALTNGSFSPSGNNGSVNWRT [DLC1] | 3.14 ± 0.14 | 3.19 ± 0.23 |
| MPRAPKRQRCMPEEDLQSQSETQG [MAGEA10] | 5.02 ± 0.42 | 5.05 ± 0.12 |
| EHAIAEAQKNMYFKTRLKCPRSLS [ZNF396] | 3.26 ± 0.23 | 3.53 ± 0.3 |
| AVVNELIDYGANVNQPNNNGFTPL [ANKRD44] | 3.05 ± 0.2 | 3.21 ± 0.17 |
| LARRRRRRQARREAEADKPRRLGR [NOP53] | 4.63 ± 0.093 | 4.75 ± 0.42 |
| SGGSSSSFRAGSKGLSGGFGSRSL [KRT71] | 3.32 ± 0.18 | 3.14 ± 0.13 |
| KSSAQGPIPWFLPESRSLPSSPLR [PPEF2] | 3.56 ± 0.53 | 3.56 ± 0.21 |
| GGSGGGSHHHHQSRGACTSHDPQS [KCNA4] | 5.08 ± 0.24 | 5.12 ± 0.33 |
| MFLEISSYYDPGRLICDFPFDGLL [VPS39] |  | 3.39 ± 1.3 |
| MVGLILGPFGVNHGVELHSDVIEY [PCMTD2] | 3 ± 1.1 | 2.82 ± 0.64 |
| VLSLLSLEPAQRPPLSHIMAQPLC [NEK8] | 2.17 ± 0.15 | 2.3 ± 0.099 |
| EVLVKSNNLTDRIVVIPGKVEEVS [CARM1] | 3.66 ± 0.19 | 3.8 ± 0.43 |
| SCSQNLLITQQIIPVLYCMVFIAG [P2RY14] | 3.03 ± 0.58 | 2.87 ± 0.73 |
| RGRMPPTQPTHGQFALTNGDPLNC [NR2F2] | 4.06 ± 0.12 | 3.97 ± 0.26 |
| TFPDLESEFQAALSRKVAKLVHFL [MAGEA6] | 2.27 ± 0.2 | 2.22 ± 0.21 |
| MSTGPIAESWCYTQVKVVKFSYMW [SPOPL] | 2.41 ± 0.08 | 3.35 ± 1.5 |
| RAVNSLSMENANQENEEKEQVANK [BEX1] | 5.52 ± 0.24 | 5.5 ± 0.34 |
| TKLSAQSAQYSQQLQAARNEYLLN [FCHSD1] | 3.19 ± 0.055 | 3.33 ± 0.18 |

| Sequence | protein stability index (treatment: DMSO) | protein stability index (treatment: MLN4924 1 uM, 8 h) |
| --- | --- | --- |
| NQLQTKVAVLEQEIKDKDQLVLRT [SASS6] | 4.65 ± 0.21 | 4.74 ± 0.27 |
| HLVQHQHPNSRKSSAGGAKAGQPE [ZNF8] | 4.8 ± 0.18 | 4.79 ± 0.16 |
| GNVKIDSQKLNFREHAKARVDHGA [MAP2] | 4.22 ± 0.14 | 4.23 ± 0.52 |
| WQRGLNTPEDSDPDHFDTAILFTR [ADAMTS4] | 3.54 ± 0.25 | 3.5 ± 0.46 |
| QYVITHAKVNILLVENDQQLQKIL [ACSBG2] | 2.5 ± 0.58 | 2.13 ± 0.2 |
| KINVNEIFYDLVRQINRKTPVPGK [RAP1B] | 2.44 ± 0.4 | 2.25 ± 0.26 |
| FQKSLVLISKLPYIHFFHTVLKQI [DENND6A] | 2.67 ± 0.72 | 2.42 ± 0.63 |
| NTELEVKIRDWYQRQAPGPARDYS [KRT17] | 3.4 ± 0.35 | 3.48 ± 0.41 |
| YCKPTRLDLLLDMPPVSYDVQLLH [SPSB1] | 2.2 ± 0.23 | 2.14 ± 0.33 |
| DLLPTFRHTLQKLTCEFNNNHESL [FBXO39] | 2.27 ± 0.22 | 2.35 ± 0.48 |
| ELNFISVFWPQLPNGLEAAYEFAD [MMP1] | 2.45 ± 0.47 | 2.15 ± 0.59 |
| TYVAKMSEPHYGHAGTVYGGVMYI [KLHL13] | 3.32 ± 0.82 | 2.52 ± 0.45 |
| DEEQQVLLSRLEEEEQDILQRLRE [TRIM39] | 5.27 ± 0.098 | 5.28 ± 0.33 |
| VAMDTEFPGVVARPIGEFRSNADY [CNOT7] | 3.73 ± 0.38 | 3.78 ± 0.37 |
| IGLDNGTISEFILSEDYNKMTPVK [WDFY2] | 2.98 ± 0.47 | 3.16 ± 0.54 |
| LSLSNATVLTRSLFLGRILSLTSS [FANCE] | 3.06 ± 0.64 | 2.88 ± 0.34 |
| RVDPTRVNEFGMSGEDPTAAAPVA [CLPTM1] | 4.98 ± 0.099 | 5.02 ± 0.2 |
| LYDLRADREVAIYSKESIIFGASS [GNB5] | 2.51 ± 0.27 | 2.72 ± 0.27 |
| EAPQWLESDSCQKCEQPFFWNIKQ [WDFY1] | 3.32 ± 0.7 | 3.48 ± 0.38 |
| GSSGSYFVKDPQGRIIAVFKPKNE [PI4K2A] | 3.34 ± 0.16 | 3.66 ± 0.12 |
| DTPVQNKRRRSVTPPEEQQEAEEP [CDC25B] | 5.51 ± 0.35 | 5.71 ± 0.22 |
